Target: C3 ligand for CR2 deposited on CHO cells (human) (UniProt P01024)
Assay: cell-based or functional assay

50% inhibition of CHO cell lysis [nM] | Binder
18 | CR2-DAF (protein) ISCGSPPPILNGRISYYSTPIAVGTVIRYSCSGTFRLIGEKSLLCITKDKVDGTWDKPAPKCEYFNKYSSCPEPIVPGGYKIRGSTPYRHGDSVTFACKTNFSMNGNKSVWCQANNMWGPTRLPTCVSVFPLECPALPMIHNGHHTSENVGSIAPGLSVTYSCESGYLLVGEKIINCLSSGKWSAVPPTCEEARCKSLGRFPNGKVKEPPILRVGVTANFFCDEGYRLQGPPSSRCVIAGQGVAWTKMPVCGGGSGGGGSDCGLPPDVPNAQPALEGRTSFPEDTVITYKCEESFVKIPGEKDSVICLKGSQWSDIEEFCNRSCEVPTRLNSASLKQPYITQNYFPVGTVVEYECRPGYRREPSLSPKLTCLQNLKWSTAVEFCKKKSCPNPGEIRNGQIDVPGGILFGATISFSCNTGYKLFGSTSSFCLISGSSVQWSDPLPECREIYCPAPPQIDNGIIQGERDHYGYRQSVTYACNKGFTMIGEHSIYCTV
102 | CR2-CD59 (protein) ISCGSPPPILNGRISYYSTPIAVGTVIRYSCSGTFRLIGEKSLLCITKDKVDGTWDKPAPKCEYFNKYSSCPEPIVPGGYKIRGSTPYRHGDSVTFACKTNFSMNGNKSVWCQANNMWGPTRLPTCVSVFPLECPALPMIHNGHHTSENVGSIAPGLSVTYSCESGYLLVGEKIINCLSSGKWSAVPPTCEEARCKSLGRFPNGKVKEPPILRVGVTANFFCDEGYRLQGPPSSRCVIAGQGVAWTKMPVCSGGGGSLQCYNCPNPTADCKTAVNCSSDFDACLITKAGLQVYNKCWKFEHCNFNDVTTRLRENELTYYCCKKDLCNFNEQLEN
